Measurements as given in paper PMC2937035.

Assays:
Assay in all cases: protein microarray
Settings in all cases: Protein microarray binding buffer, salt, pH and temperature not given in the material
[1] = tested on: Gcy1 (Saccharomyces cerevisiae)
[2] = tested on: Khd1 (Hek2) (Saccharomyces cerevisiae)
[3] = tested on: Mdh3 (Saccharomyces cerevisiae)
[4] = tested on: Npl3 (Saccharomyces cerevisiae)
[5] = tested on: Pcs60 (Saccharomyces cerevisiae)
[6] = tested on: Rrp5 (Saccharomyces cerevisiae)
[7] = tested on: Scp160 (Saccharomyces cerevisiae)
[8] = tested on: She2 (Saccharomyces cerevisiae)
[9] = tested on: Ydl124w (Saccharomyces cerevisiae)

Substance: ASH1 mRNA
- binding signal (normalized mean signal (Cy3); Cy5 19.6) [1]: 8.9
- binding signal (normalized mean signal (Cy3); Cy5 24.0) [2]: 3.4
- binding signal (normalized mean signal (Cy3); Cy5 60.2) [3]: 2.9
- binding signal (normalized mean signal (Cy3); Cy5 153.8) [4]: 7.1
- binding signal (normalized mean signal (Cy3); Cy5 89.8) [5]: 3.7
- binding signal (normalized mean signal (Cy3); Cy5 14.6) [6]: 3.8
- binding signal (normalized mean signal (Cy3); Cy5 117.7) [7]: 2.9
- binding signal (normalized mean signal (Cy3); Cy5 17.8) [8]: 17.1
- binding signal (normalized mean signal (Cy3); Cy5 14.6) [9]: 11.9
